Among the data in patent US20200283478A1 (Genentech, published 2020) are IC50, ELISA and s/n ratio values, retold here.

Like-named read-outs stand apart in the source and are kept apart here. Bridge positions count the residues as written; N and C are the ends. Square brackets hold non-standard residues; d marks the D form. Where only a bound is given, the exact number is not on record here.

The target of experiment [1] is T1, His-tagged, full-length PCSK9 (human, UniProt Q8NBP7 31-692).
T1 construct: secreted PCSK9 is autocatalytically cleaved into prodomain and catalytic domain + CRD (from S153), which stay associated; also called His-PCSK9; proprotein convertase subtilisin/kexin type 9; not shown: His tag
T1 sequence (Q8NBP7 31-692 limits assumed): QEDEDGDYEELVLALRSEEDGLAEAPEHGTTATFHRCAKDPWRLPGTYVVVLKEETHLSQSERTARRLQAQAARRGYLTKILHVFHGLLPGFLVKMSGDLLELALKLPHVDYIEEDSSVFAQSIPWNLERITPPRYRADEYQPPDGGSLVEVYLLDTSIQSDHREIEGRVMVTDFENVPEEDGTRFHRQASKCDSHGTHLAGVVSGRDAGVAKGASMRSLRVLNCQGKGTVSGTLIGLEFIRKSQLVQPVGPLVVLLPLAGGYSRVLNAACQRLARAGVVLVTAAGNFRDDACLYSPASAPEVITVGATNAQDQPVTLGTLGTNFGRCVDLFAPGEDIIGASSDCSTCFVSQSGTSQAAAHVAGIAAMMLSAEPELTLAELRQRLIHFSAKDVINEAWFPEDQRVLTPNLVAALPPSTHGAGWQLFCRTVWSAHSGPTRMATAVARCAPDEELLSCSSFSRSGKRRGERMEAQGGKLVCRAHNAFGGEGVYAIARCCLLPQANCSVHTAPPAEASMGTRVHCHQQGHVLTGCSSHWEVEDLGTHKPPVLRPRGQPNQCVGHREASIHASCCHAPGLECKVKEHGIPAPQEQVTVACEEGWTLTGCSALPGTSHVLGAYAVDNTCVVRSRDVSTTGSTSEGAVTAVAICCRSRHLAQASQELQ
In words: TR-FRET competition (PCSK9/EGF(A) assay); competitor EGF(A)-Fc.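 Also: proximity signal from anti-His APC on PCSK9 paired with anti-Fc europium on the Fc ligand, read as normalized TR-FRET ratio across compound dilutions.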 On the technique in general: In TR-FRET formats the signal depends on donor and acceptor labels being close together.

For experiment [2], the target named is T2, proprotein convertase subtilisin/kexin type 9 (PCSK9) (human, UniProt Q8NBP7 31-692).
T2 construct: His-tagged full-length PCSK9 in TR-FRET and SPR, biotinylated in phage ELISA; secreted protein is autoprocessed (prodomain plus catalytic/CRD chain starting at S153); also called rec.PCSK9; His-PCSK9
T2 sequence (Q8NBP7 other isoform, or with tags, fused parts or gaps limits assumed): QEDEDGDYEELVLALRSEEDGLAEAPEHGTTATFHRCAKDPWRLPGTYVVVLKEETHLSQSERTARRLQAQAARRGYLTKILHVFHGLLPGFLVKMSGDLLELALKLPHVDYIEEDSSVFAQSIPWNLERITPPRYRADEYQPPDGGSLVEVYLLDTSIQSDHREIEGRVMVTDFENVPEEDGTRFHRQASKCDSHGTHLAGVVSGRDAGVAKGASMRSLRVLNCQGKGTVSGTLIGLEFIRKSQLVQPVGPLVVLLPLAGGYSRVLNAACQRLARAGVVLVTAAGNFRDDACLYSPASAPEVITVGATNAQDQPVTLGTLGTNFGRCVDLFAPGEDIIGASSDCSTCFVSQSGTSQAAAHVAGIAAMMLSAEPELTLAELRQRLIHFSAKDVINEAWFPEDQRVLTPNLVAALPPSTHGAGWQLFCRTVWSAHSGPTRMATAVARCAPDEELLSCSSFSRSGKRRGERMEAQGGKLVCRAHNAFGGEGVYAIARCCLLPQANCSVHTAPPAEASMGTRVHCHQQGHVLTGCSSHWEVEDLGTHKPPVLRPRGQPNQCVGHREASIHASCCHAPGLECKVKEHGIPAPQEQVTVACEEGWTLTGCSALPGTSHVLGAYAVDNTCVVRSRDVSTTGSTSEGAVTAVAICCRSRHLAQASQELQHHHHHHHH
In words: phage spot ELISA. Background: In an ELISA, binding on a coated surface is turned into a signal by an enzyme label.
From the text: The binding signal of the same phage particle to NeutrAvidin was considered as non-specific binding (“noise”).

Experiment [3] addresses T3, PCSK9Δhelix (human, Chemically biotinylated in the phage ELISAs; the site is not given.).
T3 construct: construct M1-Q692 with engineered TEV site, cleaved by TEV; also called His-PCSK9Δhelix; open groove PCSK9Δhelix
The experiment in a line: phage spot ELISA.

In experiment [4] the target is T2, proprotein convertase subtilisin/kexin …. The experiment in a line: phage spot ELISA. The source holds these as a separate data set.
In experiment [5] the target is T3, PCSK9Δhelix. The experiment in a line: phage spot ELISA. The source holds these as a separate data set.

T3 sequence (prodomain, as listed by the source mutant limits assumed, chain 1 of 2): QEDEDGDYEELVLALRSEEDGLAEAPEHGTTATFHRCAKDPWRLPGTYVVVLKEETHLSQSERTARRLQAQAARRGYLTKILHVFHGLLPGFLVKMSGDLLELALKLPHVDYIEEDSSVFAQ
T3 sequence (chain, as listed by the source mutant limits assumed, chain 2 of 2): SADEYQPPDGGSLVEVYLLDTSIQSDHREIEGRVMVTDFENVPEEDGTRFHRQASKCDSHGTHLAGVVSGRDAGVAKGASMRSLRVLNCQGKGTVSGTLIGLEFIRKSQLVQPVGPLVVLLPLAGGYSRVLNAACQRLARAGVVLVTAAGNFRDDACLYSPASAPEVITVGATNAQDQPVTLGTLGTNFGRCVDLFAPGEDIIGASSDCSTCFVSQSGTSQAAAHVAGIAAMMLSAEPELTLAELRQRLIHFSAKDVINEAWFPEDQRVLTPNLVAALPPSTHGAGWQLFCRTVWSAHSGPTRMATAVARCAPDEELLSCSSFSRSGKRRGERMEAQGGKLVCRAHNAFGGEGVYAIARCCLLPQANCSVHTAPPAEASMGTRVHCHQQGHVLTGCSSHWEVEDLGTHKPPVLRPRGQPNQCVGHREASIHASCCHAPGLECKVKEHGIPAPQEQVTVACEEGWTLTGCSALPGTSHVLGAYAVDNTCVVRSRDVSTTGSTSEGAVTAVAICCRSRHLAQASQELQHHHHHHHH

B1: Compound 102 (Ac-CRLPWNLQrIGLPC-NH2) (peptide)
peptide: Ac-CRLPWNLQ[dR]IGLPC-NH2
modifications: disulfide 1-14
SMILES: CC[C@H](C)[C@@H]1NC(=O)[C@@H](CCCNC(=N)N)NC(=O)[C@H](CCC(N)=O)NC(=O)[C@H](CC(C)C)NC(=O)[C@H](CC(N)=O)NC(=O)[C@H](Cc2c[nH]c3ccccc23)NC(=O)[C@@H]2CCCN2C(=O)[C@H](CC(C)C)NC(=O)[C@H](CCCNC(=N)N)NC(=O)[C@@H](NC(C)=O)CSSC[C@@H](C(N)=O)NC(=O)[C@@H]2CCCN2C(=O)[C@H](CC(C)C)NC(=O)CNC1=O
For the molecule B1, the half-inhibitory concentration (IC50) (in general, the concentration that inhibits the measured activity by half) in experiment [1] was more than 50 µM.

B2: Compound 100 (Ac-CRLPWNLQRIGlPC-NH2) (peptide)
peptide: Ac-CRLPWNLQRIG[dL]PC-NH2
modifications: disulfide 1-14
SMILES: CC[C@H](C)[C@@H]1NC(=O)[C@H](CCCNC(=N)N)NC(=O)[C@H](CCC(N)=O)NC(=O)[C@H](CC(C)C)NC(=O)[C@H](CC(N)=O)NC(=O)[C@H](Cc2c[nH]c3ccccc23)NC(=O)[C@@H]2CCCN2C(=O)[C@H](CC(C)C)NC(=O)[C@H](CCCNC(=N)N)NC(=O)[C@@H](NC(C)=O)CSSC[C@@H](C(N)=O)NC(=O)[C@@H]2CCCN2C(=O)[C@@H](CC(C)C)NC(=O)CNC1=O
B2 had an IC50 in experiment [1] of more than 50 µM.

For the molecule TAFTSWEEYLDWVGSGVPWNLARL [SEQ ID NO 314], the ELISA is 2.82 in experiment [2] and 2.68 in the experiment with PCSK9Δhelix [3]. Also, the s/n ratio in experiment [2] was 29.3; with PCSK9Δhelix [3], 27.3.

In the case of TAFTSWEEYLDWVGSGVPWNLAKI [SEQ ID NO 315], the ELISA in experiment [2] worked out at 2.69; with PCSK9Δhelix [3], 2.67. The s/n ratio in experiment [2] worked out at 22.4; with PCSK9Δhelix [3], 24.1.

In the case of TAFTSWEEYLDWVGSGGPWNLNRV [SEQ ID NO 309], in experiment [2], the ELISA turned out to be 2.68 and the s/n ratio was determined as 27.6. In the experiment with PCSK9Δhelix [3], the ELISA is 2.7 and the s/n ratio was 29.3.

With TAFTSWEEYLDWVGSGTRYADRGVMVYSLS [SEQ ID NO 321], the ELISA in experiment [2] was 2.85; with PCSK9Δhelix [3], 2.81; in experiment [4], 3.03; in the experiment with PCSK9Δhelix [5], 3.03. In addition, the s/n ratio in experiment [2] amounted to 23; in the experiment with PCSK9Δhelix [3] it was 22.8; in experiment [4], 30.3; with PCSK9Δhelix [5], 27.5.

Turning to TAFTSWEEYLDWVGSGNPTYWLTRIS [SEQ ID NO 331], the ELISA in experiment [2] was determined as 2.98; with PCSK9Δhelix [3], 3.02. The s/n ratio in experiment [2] was found to be 23.1; with PCSK9Δhelix [3], 28.

As for TAFTSWEEYLDWVGSGMPWNLARIER [SEQ ID NO 318], in experiment [2], the ELISA worked out at 2.86 and the s/n ratio amounted to 27.8. For the same molecule, in the experiment with PCSK9Δhelix [3], the ELISA stood at 3 and the s/n ratio was found to be 30.3.

Consider TAFTSWEEYLDWVGSGKLWNLGRV [SEQ ID NO 306], for which the ELISA turned out to be 2.79 in experiment [2] and 2.62 with PCSK9Δhelix [3]. In addition, the s/n ratio amounted to 28.2 in experiment [2] and 8.55 in the experiment with PCSK9Δhelix [3].

Regarding TAFTSWEEYLDWVGSGPLLWNLQKVH [SEQ ID NO 310], in experiment [2], the ELISA was determined as 2.75 and the s/n ratio was determined as 23.5. Besides, in the experiment with PCSK9Δhelix [3], the ELISA amounted to 2.76 and the s/n ratio amounted to 24.4.

Consider TAFTSWEEYLDWVGSGGHPLWNLSRI [SEQ ID NO 316], for which, in experiment [2], the ELISA came out at 2.73 and the s/n ratio is 25.7. Moreover, in the experiment with PCSK9Δhelix [3], the ELISA came out at 2.6 and the s/n ratio amounted to 9.12.

In the case of TAFTSWEEYLDWVGSGNELWNINRLRSS [SEQ ID NO 317], in experiment [2], the ELISA stood at 2.94 and the s/n ratio amounted to 12. Moreover, in the experiment with PCSK9Δhelix [3], the ELISA was found to be 2.76 and the s/n ratio came out at 13.2.

With TAFTSWEEYLDWVGSGRGGYELNIPR [SEQ ID NO 326], the ELISA is 2.93 in experiment [2], 2.69 with PCSK9Δhelix [3], 3.13 in experiment [4] and 2.92 with PCSK9Δhelix [5]. Besides, the s/n ratio in experiment [2] was 26.1; in the experiment with PCSK9Δhelix [3], 18.8; in experiment [4] it was 29.8; with PCSK9Δhelix [5] it was 25.6.

For the molecule TAFTSWEEYLDWVGSGVVLWNHSRIL [SEQ ID NO 313], in experiment [2], the ELISA was 2.95 and the s/n ratio turned out to be 26.8. In the experiment with PCSK9Δhelix [3], the ELISA is 2.96 and the s/n ratio is 26.6.

Turning to TAFTSWEEYLDWVGSGMVYVDRGVRVFT [SEQ ID NO 322], in experiment [2], the ELISA amounted to 2.82 and the s/n ratio is 27.9. Also, in the experiment with PCSK9Δhelix [3], the ELISA was determined as 2.71 and the s/n ratio was determined as 25.1.

B3: Compound 104 (Ac-CRLPWNlQRIGLPC-NH2) (peptide)
peptide: Ac-CRLPWN[dL]QRIGLPC-NH2
modifications: disulfide 1-14
SMILES: CC[C@H](C)[C@@H]1NC(=O)[C@H](CCCNC(=N)N)NC(=O)[C@H](CCC(N)=O)NC(=O)[C@@H](CC(C)C)NC(=O)[C@H](CC(N)=O)NC(=O)[C@H](Cc2c[nH]c3ccccc23)NC(=O)[C@@H]2CCCN2C(=O)[C@H](CC(C)C)NC(=O)[C@H](CCCNC(=N)N)NC(=O)[C@@H](NC(C)=O)CSSC[C@@H](C(N)=O)NC(=O)[C@@H]2CCCN2C(=O)[C@H](CC(C)C)NC(=O)CNC1=O
Take B3: in experiment [1], the IC50 was more than 50 µM.

For TAFTSWEEYLDWVGSGGEYLWNLKRLES [SEQ ID NO 320], the figures for the ELISA (in experiment [2]; in the experiment with PCSK9Δhelix [3]) were 2.84 and 2.94, respectively. In addition, the figures for the s/n ratio (in experiment [2]; in the experiment with PCSK9Δhelix [3]) were 28.7 and 26, respectively.

TAFTSWEEYLDWVGSGKLWNLTRISS [SEQ ID NO 312]: in experiment [2], the ELISA came to 2.87 and the s/n ratio is 28.1. In addition, in the experiment with PCSK9Δhelix [3], the ELISA stood at 2.69 and the s/n ratio came out at 25.8.

With TAFTSWEEYLDWVGSGALWNMRRVESVAFR [SEQ ID NO 319], in experiment [2], the ELISA is 3.09 and the s/n ratio came out at 23.9. For the same molecule, in the experiment with PCSK9Δhelix [3], the ELISA worked out at 3.04 and the s/n ratio came to 20.1.

For the molecule TAFTSWEEYLDWVGSGPHSYWLDRVQ [SEQ ID NO 332], the results for the ELISA (in experiment [2]; with PCSK9Δhelix [3]) were 2.89 and 2.68, respectively. Further, the s/n ratio stood at 25.3 in experiment [2] and 24.6 with PCSK9Δhelix [3].

Take TAFTSWEEYLDWVGSGNCWSSLRGICENLG [SEQ ID NO 307]: in experiment [2], the ELISA was 2.81 and the s/n ratio stood at 21.7. Moreover, in the experiment with PCSK9Δhelix [3], the ELISA amounted to 2.91 and the s/n ratio turned out to be 22.5.

B4: Compound 103 (Ac-CRLPWNLqRIGLPC-NH2) (peptide)
peptide: Ac-CRLPWNL[dQ]RIGLPC-NH2
modifications: disulfide 1-14
SMILES: CC[C@H](C)[C@@H]1NC(=O)[C@H](CCCNC(=N)N)NC(=O)[C@@H](CCC(N)=O)NC(=O)[C@H](CC(C)C)NC(=O)[C@H](CC(N)=O)NC(=O)[C@H](Cc2c[nH]c3ccccc23)NC(=O)[C@@H]2CCCN2C(=O)[C@H](CC(C)C)NC(=O)[C@H](CCCNC(=N)N)NC(=O)[C@@H](NC(C)=O)CSSC[C@@H](C(N)=O)NC(=O)[C@@H]2CCCN2C(=O)[C@H](CC(C)C)NC(=O)CNC1=O
As for B4, in experiment [1], the IC50 is more than 50 µM.

B5: Compound 101 (Ac-CRLPWNLQRiGLPC-NH2) (peptide)
peptide: Ac-CRLPWNLQR[dI]GLPC-NH2
modifications: disulfide 1-14
SMILES: CC[C@@H](C)[C@H]1NC(=O)[C@H](CCCNC(=N)N)NC(=O)[C@H](CCC(N)=O)NC(=O)[C@H](CC(C)C)NC(=O)[C@H](CC(N)=O)NC(=O)[C@H](Cc2c[nH]c3ccccc23)NC(=O)[C@@H]2CCCN2C(=O)[C@H](CC(C)C)NC(=O)[C@H](CCCNC(=N)N)NC(=O)[C@@H](NC(C)=O)CSSC[C@@H](C(N)=O)NC(=O)[C@@H]2CCCN2C(=O)[C@H](CC(C)C)NC(=O)CNC1=O
With B5, the IC50 in experiment [1] was more than 50 µM.

Regarding TAFTSWEEYLDWVGSGSCSWNVERIRGCSV [SEQ ID NO 311], in experiment [2], the ELISA is 2.92 and the s/n ratio came out at 18.8. For the same molecule, in the experiment with PCSK9Δhelix [3], the ELISA amounted to 2.83 and the s/n ratio was determined as 26.
